From patent publication US20250019450A1
Substitutions are numbered along the chain they refer to.

B1: VHH211B2 (VHH)
VHH: QVQLVESGGGLVQAGNSLRLSCAASGRTFSSYVVGWFRQAPGKEREFVGRISWSGARTYYADSVKGRFTISRDNAKNTVYLQMNSLKPEDTAVYYCAADLKWEVLLSEHFEYWGQGTQVTVSS
B2: VHH229B2 (VHH)
VHH: QVQLVESGGGLVQAGGSLRLSCAASGRTFSSYAMGWFRQAPGKEREFVSAISWNGGSRYYVESVEGRFTISRDNAKNTVYLQMNSLKPEDTAVYYCAASRIYTNYVARSYEYDDWGQGTQVTVSS
B3: VHH241B2 (VHH)
VHH: QVQLVESGGGLVQLGDSLRLSCAASGRGFSSWTMAWFRQALGKRREFVAAITATGARTCSAESEGRFTISRDNAKNMVFLQMNSLKAEDTAVYYCAATGIASWDPGMADKYTYWGQGTQVTVSS
B4: VHH277B2 (VHH)
VHH: B3 VHH with G99E, S102G, A108G, T112P
B5: VHH216B2 (VHH)
VHH: QVQLVESGGGLVQPGGSLRLSCATSEHTFGTYRMGWFRQAPGKEREFVAGISWTGQTTYYAASVKGRFAISKDNAKNTVYLQMNTLKSDDTAVYYCAVETNNLGRWDRPSEYDYWGQGTQVTVSS
B6: VHH356B2 (VHH)
VHH: QLQLVESGGGLVQPGGSLRLSCAASGSIFSINAMGWYRQAPGKQRELVAAITSGGSTAYADSVKGRFTISRDNAKNTVYLQMNSLKPEDTAVYYCNADRDPITSWYVRGDYWGQGTQVTVSS
B7: VHH230B2 (VHH)
VHH: B2 VHH with N54S, G56L, R58T, E65Q
B8: VHH219B2 (VHH)
VHH: B1 VHH with V5E, N16G, K65E, F110Y
B9: VHH93B2 (VHH)
VHH: QVQLVESGGGLVQPGGSLRLSCAASGFTFEPYDMSWFRQAPGKGPEWVSAIDKGGGAGATYYADSVKGRFTISRDNAKKTLYLQMKSLKPEDTAVYYCAITAGPYSDSTPRVAYRGEGTQVTVSS

What follows are binders tested against human IL-12Rβ2-huFc-his (R&D system), biotinylated (human) (UniProt Q99665) (assay: ELISA, periplasmic extract).
Chain of human IL-12Rβ2-huFc-his (R&D system), biotinylated (human) (Q99665 24-622 limits assumed): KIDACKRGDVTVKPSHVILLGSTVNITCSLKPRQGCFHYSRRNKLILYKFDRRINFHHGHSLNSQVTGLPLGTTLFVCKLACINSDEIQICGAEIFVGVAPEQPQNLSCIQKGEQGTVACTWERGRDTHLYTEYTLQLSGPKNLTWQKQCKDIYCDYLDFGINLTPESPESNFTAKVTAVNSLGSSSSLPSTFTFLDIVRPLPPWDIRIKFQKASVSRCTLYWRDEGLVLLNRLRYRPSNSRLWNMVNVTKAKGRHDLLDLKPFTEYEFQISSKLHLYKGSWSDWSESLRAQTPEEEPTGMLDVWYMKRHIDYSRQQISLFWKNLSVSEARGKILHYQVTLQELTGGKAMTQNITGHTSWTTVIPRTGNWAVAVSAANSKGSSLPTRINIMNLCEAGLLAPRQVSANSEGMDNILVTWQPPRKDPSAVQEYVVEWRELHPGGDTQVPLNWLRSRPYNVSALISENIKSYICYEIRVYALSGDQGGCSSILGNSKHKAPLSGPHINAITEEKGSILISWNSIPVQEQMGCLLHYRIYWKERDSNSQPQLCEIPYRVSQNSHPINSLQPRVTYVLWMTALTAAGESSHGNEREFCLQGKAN
Binder B1 has an OD450 nm of 0.227. With B2 the OD450 nm was 0.138. B3 showed an OD450 nm of 0.139. With B4 the OD450 nm was 0.137. B5 showed an OD450 nm of 0.586.

Each binder was assayed against cyno IL-12RB2 with C-terminal HA tag, transiently expressed on HEK-293T cells (cyno) (assay: FACS, periplasmic extract, HEK-293T).
Chain of cyno IL-12RB2 with C-terminal HA tag, transiently expressed on HEK-293T cells (cyno) (chain, as listed by the source): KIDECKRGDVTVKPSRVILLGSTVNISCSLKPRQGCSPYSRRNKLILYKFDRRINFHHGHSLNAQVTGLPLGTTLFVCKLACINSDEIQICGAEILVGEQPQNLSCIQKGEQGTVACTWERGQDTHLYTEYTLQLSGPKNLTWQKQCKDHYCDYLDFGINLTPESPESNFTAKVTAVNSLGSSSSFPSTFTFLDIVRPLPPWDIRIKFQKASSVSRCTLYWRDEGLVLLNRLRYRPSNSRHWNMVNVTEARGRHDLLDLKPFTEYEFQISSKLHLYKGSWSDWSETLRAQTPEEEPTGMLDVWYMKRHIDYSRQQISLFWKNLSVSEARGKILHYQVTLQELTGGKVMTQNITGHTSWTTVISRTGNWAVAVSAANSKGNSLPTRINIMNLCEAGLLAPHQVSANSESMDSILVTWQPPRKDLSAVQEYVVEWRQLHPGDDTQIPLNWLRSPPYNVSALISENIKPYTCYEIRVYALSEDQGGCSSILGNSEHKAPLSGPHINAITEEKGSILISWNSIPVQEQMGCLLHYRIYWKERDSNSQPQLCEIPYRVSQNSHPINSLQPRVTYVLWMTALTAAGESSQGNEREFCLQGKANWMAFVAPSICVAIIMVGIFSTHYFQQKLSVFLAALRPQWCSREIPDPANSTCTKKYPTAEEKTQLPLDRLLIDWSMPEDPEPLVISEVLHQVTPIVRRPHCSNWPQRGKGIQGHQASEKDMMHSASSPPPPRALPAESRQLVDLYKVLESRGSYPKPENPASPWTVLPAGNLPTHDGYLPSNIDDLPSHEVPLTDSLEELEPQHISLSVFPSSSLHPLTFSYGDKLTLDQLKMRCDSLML
For B6, the FOB was 2 fold. Work on B7 yielded an FOB of 1.66 fold.

What follows are binders tested against human IL-12RB2 with C-terminal HA tag, transiently expressed on HEK-293T cells (human) (UniProt Q99665) (assay: FACS, periplasmic extract, HEK-293T).
Chain of human IL-12RB2 with C-terminal HA tag, transiently expressed on HEK-293T cells (human) (Q99665 24-862): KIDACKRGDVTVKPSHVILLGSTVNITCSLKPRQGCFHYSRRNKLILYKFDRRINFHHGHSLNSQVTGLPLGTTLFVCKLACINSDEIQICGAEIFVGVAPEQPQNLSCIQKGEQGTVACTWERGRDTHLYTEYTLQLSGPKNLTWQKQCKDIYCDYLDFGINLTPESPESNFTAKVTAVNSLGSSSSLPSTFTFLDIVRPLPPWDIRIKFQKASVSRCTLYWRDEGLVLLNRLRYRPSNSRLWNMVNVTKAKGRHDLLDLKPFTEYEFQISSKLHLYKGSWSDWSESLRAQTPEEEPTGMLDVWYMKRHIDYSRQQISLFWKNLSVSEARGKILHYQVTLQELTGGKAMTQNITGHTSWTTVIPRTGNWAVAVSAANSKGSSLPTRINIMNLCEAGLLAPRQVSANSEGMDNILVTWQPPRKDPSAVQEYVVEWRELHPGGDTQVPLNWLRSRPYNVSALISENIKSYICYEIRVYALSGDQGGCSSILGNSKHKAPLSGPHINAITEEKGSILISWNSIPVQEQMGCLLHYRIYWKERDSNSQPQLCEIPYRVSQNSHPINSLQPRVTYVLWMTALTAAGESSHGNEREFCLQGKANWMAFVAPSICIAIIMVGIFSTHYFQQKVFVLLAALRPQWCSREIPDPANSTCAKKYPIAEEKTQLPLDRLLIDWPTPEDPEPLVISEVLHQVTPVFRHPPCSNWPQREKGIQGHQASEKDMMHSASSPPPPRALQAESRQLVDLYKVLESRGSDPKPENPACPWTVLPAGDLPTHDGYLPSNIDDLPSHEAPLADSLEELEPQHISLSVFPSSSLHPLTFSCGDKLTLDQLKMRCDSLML
B8 was tested, and the FOB was 1.54 fold. B3 showed an FOB of 1.63 fold. Binder B5 has an FOB of 0.99 fold. Work on B9 yielded an FOB of 1.98 fold.
